# Experiments:
# [1] = target: T1, human ErbB3-Fc (R&D Systems) (human, UniProt P21860 20-643); assay: ELISA on ErbB3-Fc (Example 42); format of the parent not stated, the variants were soluble monovalent Sabs
# T1 construct: Bought protein; also called wild-type ErbB3-Fc fusion; immobilized ErbB3; not shown: Fc part of the bought fusion protein; not described
# [2] = target: T2, murine ErbB3-Fc (R&D Systems) (mouse, UniProt Q61526 20-641); assay: ELISA, SgG on plate-coated murine ErbB3-Fc, anti-VpreB detection
# T2 construct: Bought protein; also called mouse ErbB3; not shown: Fc part of the bought fusion protein; not described
# T2 sequence (Q61526 20-641 limits assumed): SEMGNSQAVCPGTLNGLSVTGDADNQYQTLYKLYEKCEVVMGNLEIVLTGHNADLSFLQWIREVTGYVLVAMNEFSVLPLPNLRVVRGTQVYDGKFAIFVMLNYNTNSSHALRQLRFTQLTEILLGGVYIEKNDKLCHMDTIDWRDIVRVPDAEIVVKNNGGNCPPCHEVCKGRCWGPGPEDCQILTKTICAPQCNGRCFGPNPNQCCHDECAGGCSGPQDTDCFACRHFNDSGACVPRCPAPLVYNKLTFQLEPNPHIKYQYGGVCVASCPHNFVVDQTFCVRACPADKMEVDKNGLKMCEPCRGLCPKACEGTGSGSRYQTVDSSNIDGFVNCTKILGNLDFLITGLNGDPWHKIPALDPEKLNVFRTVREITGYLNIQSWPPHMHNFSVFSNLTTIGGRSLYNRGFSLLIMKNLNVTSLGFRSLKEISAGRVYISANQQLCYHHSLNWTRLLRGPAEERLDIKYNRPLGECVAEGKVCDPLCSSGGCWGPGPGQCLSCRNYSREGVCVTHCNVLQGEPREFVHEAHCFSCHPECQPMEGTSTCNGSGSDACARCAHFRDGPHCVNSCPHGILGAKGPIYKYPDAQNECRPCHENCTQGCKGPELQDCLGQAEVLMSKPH
# Procedure: (§1) Binding was detected using a biotinylated antibody that recognizes VpreB, followed by strepatvidin HRP. Detection used a colorimetric HRP substrate. Data was analyzed via using GraphPad Prism.
# [3] = target: T3, human ErbB3 expressed on the surface of cells (BxPC-3 and other human tumor cell lines) (human, UniProt P21860 20-1342); assay: flow cytometry on BxPC-3 cells
# T3 construct: SKBR3, PathHunter reporter cells in functional assays; The leader 1-19 is not part of the mature protein; also called cell surface ErbB3; cell surface receptor
# Procedure: (§2) Briefly, BxPC-3 cells were first dissociated using 0.25% trypsin, 0.2% EDTA, washed in cold PBS, 1% BSA, and then resuspended at 3×10⁶ cells/ml. SgGs (described above) were added at the indicated concentrations in Staining Buffer (Becton Dickinson) and incubated at 4 degrees C. for 1 hour. Next the cells were washed in stain buffer and resuspended with 1:133 diluted biotinylated goat anti-human IgG (Southern Biotech #2040-08) and incubated at 4 degrees C. for 1 hour. Cells were then washed in stain buffer and resuspended with Alexa488 conjugated streptavidin (Invitrogen #S11223) and incubated at 4 degrees C. for 1 hour. One microliter of the vital stain 7AAD (Invitrogen #A1310) was added during the last 15 minutes of incubation. Cells were washed with stain buffer and analyzed on a flow cytometer.
# (§3) Thereafter only signals arising from this gated population were analyzed. Geometric mean fluorescence intensity for cells stained using the indicated concentrations of SBPs were determined using FLOWJO analysis software and EC50s were calculated using Graphpad Prism.
# [4] = target: T1, human ErbB3-Fc (R&D Systems); assay: ELISA, SgG on plate-coated human ErbB3-Fc, anti-VpreB detection
# Procedure: (§4) Binding was detected using a biotinylated antibody that specifically recognizes VpreB, followed by streptavidin HRP. Detection used a colorimetric HRP substrate. Data was analyzed via using GraphPad Prism.
# [5] = target: T3, human ErbB3 expressed on the surface of …; assay: flow cytometry on BxPC-3 cells, geometric mean fluorescence intensity
# Procedure: as §2, §3
# [6] = target: T2, murine ErbB3-Fc (R&D Systems); assay: ELISA, SgG on plate-coated murine ErbB3-Fc
# Procedure: as §1
# ErbB2-Fc = target: T4, ErbB2-Fc (human, UniProt P04626 23-652); assay: ELISA on plate-coated ErbB2-Fc, detection biotinylated anti-VpreB (Example 52)
# T4 construct: The sentence reads 'human ErbB3-Fc, EGFR-Fc (ErbB1) or ErbB2-Fc'; 'human' is read as applying to all three; not shown: Fc part; not described
# Excerpt: (§5) ELISA plates were coated with human ErbB3-Fc, EGFR-Fc (ErbB1) or ErbB2-Fc. Various concentrations of the indicated anti-ErbB3 SBPs were then allowed to bind to the coated wells. Binding was detected using a biotinylated antibody that specifically recognizes VpreB, followed by streptavidin HRP. Detection used a colorimetric HRP substrate.
# [7] = target: T1, human ErbB3-Fc (R&D Systems); assay: ELISA on plate-coated human ErbB3-Fc, detection biotinylated anti-VpreB and streptavidin HRP (Example 52)
# Excerpt: as §5
# [8] = target: T1, human ErbB3-Fc (R&D Systems); assay: ELISA, SgG on plate-coated human ErbB3-Fc
# Procedure: as §4
# [9] = target: T1, human ErbB3-Fc (R&D Systems); assay: ELISA on plate-coated human ErbB3-Fc without NRG, detection biotinylated anti-VpreB and streptavidin HRP (Example 43); axis labelled log [Sab] nM, text speaks of SgGs
# Excerpt: (§6) The resulting bound SgGs were detected using a biotinylated anti-VpreB, followed by streptavidin HRP colorimetric detection.
# [10] = target: T1, human ErbB3-Fc (R&D Systems); assay: ELISA, inhibition of binding of NRG1-beta 1 ECD (0.26 ug/ml) to plate-coated human ErbB3-Fc
# Procedure: ELISA plates were coated with human ErbB3-Fc. Various concentrations of the indicated anti-ErbB3 SBPs were then allowed to bind to the coated wells. […] Detection used a colorimetric HRP substrate.
# Data was analyzed using GraphPad Prism.
# [11] = target: T1, human ErbB3-Fc (R&D Systems); assay: ELISA on plate-coated human ErbB3-Fc with 1.85 nM NRG1-beta 1 extracellular domain added before the SBP (+ NRG), detection biotinylated anti-VpreB (Example 43); axis labelled log [Sab] nM
# Excerpt: as §6
# EGFR-Fc (ErbB1) = target: T5, EGFR-Fc (ErbB1) (human, UniProt P00533 25-645); assay: ELISA on plate-coated EGFR-Fc (ErbB1), detection biotinylated anti-VpreB (Example 52)
# T5 construct: The sentence reads 'human ErbB3-Fc, EGFR-Fc (ErbB1) or ErbB2-Fc'; 'human' is read as applying to all three; not shown: Fc part; not described
# Excerpt: as §5
# [12] = target: T1, human ErbB3-Fc (R&D Systems); assay: ELISA on ErbB3-Fc (Example 42); format of the parent not stated, the variants were soluble monovalent Sabs; remark: listed apart in the source
EC50 [1],EC50 [2],EC50 [3],EC50 [4],EC50 [5],EC50 [6],binding result (ErbB2-Fc),EC50 (read off the curve) [7],EC50 [8],EC50 (read off the curve) [9],IC50 [10],EC50 (read off the curve) [11],binding result (EGFR-Fc (ErbB1)),EC50 [12],Binder
0.055 nM,,,,,,,,,,,,,,2817-C01 (Parent) (other) VH: EVQLLESGGGLVQPGGSLRLSCAASGFTFSTYAMNWVRQAPGKGLEWVALISSGGSYKYYADSVKGRFTISRDNSKNTLYLQMNSLRAEDTAVYYCAKDNFILLNSWFDYWGQGTLVTVSS surrogate light: QPVLHQPPAMSSALGTTIRLTCTLRNDHDIGVYSVYWYQQRPGHPPRFLLRYFSQSDKSQGPQVPPRFSGSKDVARNRGYLSISELQPEDEAMYYCAMGARSSVTHVFGSGTQLTVLSQPKATPSVTLFPPSSEELQANKATLVCLMNDFYPGILTVTWKADGTPITQGVEMTTPSKQSNNKYAASSYLSLTPEQWRSRRSYSCQVMHEGSTVEKTVAPAECS
,0.06 nM,0.04 nM,0.05 nM,0.04 nM,0.095 nM,no binding (tested: 1000 nM),~0.08 nM,0.049 nM,~0.5 nM,0.52 nM,~0.7 nM,no binding (tested: 1000 nM),,"2716-F05 surroglobulin (SgG) (other, also called anti-ErbB3 SgG) VH: EVQLLESGGGLVQPGGSLRLSCAASGFTFSNYWMHWVRQAPGKGLEWVALISGGGGNTYYADSVKGRFTISRDNSKNTLYLQMNSLRAEDTAVYYCAKDNEKNLYTWLDYWGQGTLVTVSS light: QPVLHQPPAMSSALGTTIRLTCTLRNDHDIGVYSVYWYQQRPGHPPRFLLRYFSQSDKSQGPQVPPRFSGSKDVARNRGYLSISELQPEDEAMYYCAMGARSSVTHVFGSGTQLTVLSQPKATPSVTLFPPSSEELQANKATLVCLMNDFYPGILTVTWKADGTPITQGVEMTTPSKQSNNKYAASSYLSLTPEQWRSRRSYSCQVMHEGSTVEKTVAPAECS"
,,0.138 nM,0.04 nM,0.12 nM,,no binding (tested: 1000 nM),~0.05 nM,0.041 nM,~0.2 nM,0.99 nM,~0.3 nM,no binding (tested: 1000 nM),,"2817-C01 surroglobulin (SgG) (other, also called anti-ErbB3 SgG) VH: EVQLLESGGGLVQPGGSLRLSCAASGFTFSTYAMNWVRQAPGKGLEWVALISSGGSYKYYADSVKGRFTISRDNSKNTLYLQMNSLRAEDTAVYYCAKDNFILLNSWFDYWGQGTLVTVSS light: QPVLHQPPAMSSALGTTIRLTCTLRNDHDIGVYSVYWYQQRPGHPPRFLLRYFSQSDKSQGPQVPPRFSGSKDVARNRGYLSISELQPEDEAMYYCAMGARSSVTHVFGSGTQLTVLSQPKATPSVTLFPPSSEELQANKATLVCLMNDFYPGILTVTWKADGTPITQGVEMTTPSKQSNNKYAASSYLSLTPEQWRSRRSYSCQVMHEGSTVEKTVAPAECS"
,,,,,,,,,,,,,0.22 nM,2716-F05 (Parent) (other) VH: EVQLLESGGGLVQPGGSLRLSCAASGFTFSNYWMHWVRQAPGKGLEWVALISGGGGNTYYADSVKGRFTISRDNSKNTLYLQMNSLRAEDTAVYYCAKDNEKNLYTWLDYWGQGTLVTVSS light: QPVLHQPPAMSSALGTTIRLTCTLRNDHDIGVYSVYWYQQRPGHPPRFLLRYFSQSDKSQGPQVPPRFSGSKDVARNRGYLSISELQPEDEAMYYCAMGARSSVTHVFGSGTQLTVLSQPKATPSVTLFPPSSEELQANKATLVCLMNDFYPGILTVTWKADGTPITQGVEMTTPSKQSNNKYAASSYLSLTPEQWRSRRSYSCQVMHEGSTVEKTVAPAECS

# Source: US20140308287A1 (SEA LANE BIOTECHNOLOGIES, published 2014)
